In US20210363259A1 (Biogen, published 2021):

Tests used:
integrin αvβ6 [1] = biological target: T1, integrin αvβ6 (human, UniProt P06756 31-1048; P18564 22-788); assay: potency assay, binding relative to reference standard; stability sample, 3 months at 2-8° C.
T1 construct: also called the antigen

integrin αvβ6 [2] = biological target: T1, integrin αvβ6; assay: potency assay, binding relative to reference standard; stability sample, 6 months at 2-8° C.
integrin αvβ6 [3] = biological target: T1, integrin αvβ6; assay: potency assay, binding relative to reference standard; stability sample, 9 months at 2-8° C.
integrin αvβ6 [4] = biological target: T1, integrin αvβ6; assay: potency assay, binding relative to reference standard; stability sample, 12 months at 2-8° C.
integrin αvβ6 [5] = biological target: T1, integrin αvβ6; assay: potency assay, binding relative to reference standard; stability sample, 24 months at 2-8° C.
integrin αvβ6 [6] = biological target: T1, integrin αvβ6; assay: DELFIA blocking assay, binding relative to reference standard; stability sample, 1 month at 2-8° C.
integrin αvβ6 [7] = biological target: T1, integrin αvβ6; assay: DELFIA blocking assay, binding relative to reference standard; stability sample, 0 months at 2-8° C.
integrin αvβ6 [8] = biological target: T1, integrin αvβ6; assay: DELFIA blocking assay, binding relative to reference standard; stability sample, 18 months at 2-8° C.

T1 sequence (P06756 31-1048, chain 1 of 2): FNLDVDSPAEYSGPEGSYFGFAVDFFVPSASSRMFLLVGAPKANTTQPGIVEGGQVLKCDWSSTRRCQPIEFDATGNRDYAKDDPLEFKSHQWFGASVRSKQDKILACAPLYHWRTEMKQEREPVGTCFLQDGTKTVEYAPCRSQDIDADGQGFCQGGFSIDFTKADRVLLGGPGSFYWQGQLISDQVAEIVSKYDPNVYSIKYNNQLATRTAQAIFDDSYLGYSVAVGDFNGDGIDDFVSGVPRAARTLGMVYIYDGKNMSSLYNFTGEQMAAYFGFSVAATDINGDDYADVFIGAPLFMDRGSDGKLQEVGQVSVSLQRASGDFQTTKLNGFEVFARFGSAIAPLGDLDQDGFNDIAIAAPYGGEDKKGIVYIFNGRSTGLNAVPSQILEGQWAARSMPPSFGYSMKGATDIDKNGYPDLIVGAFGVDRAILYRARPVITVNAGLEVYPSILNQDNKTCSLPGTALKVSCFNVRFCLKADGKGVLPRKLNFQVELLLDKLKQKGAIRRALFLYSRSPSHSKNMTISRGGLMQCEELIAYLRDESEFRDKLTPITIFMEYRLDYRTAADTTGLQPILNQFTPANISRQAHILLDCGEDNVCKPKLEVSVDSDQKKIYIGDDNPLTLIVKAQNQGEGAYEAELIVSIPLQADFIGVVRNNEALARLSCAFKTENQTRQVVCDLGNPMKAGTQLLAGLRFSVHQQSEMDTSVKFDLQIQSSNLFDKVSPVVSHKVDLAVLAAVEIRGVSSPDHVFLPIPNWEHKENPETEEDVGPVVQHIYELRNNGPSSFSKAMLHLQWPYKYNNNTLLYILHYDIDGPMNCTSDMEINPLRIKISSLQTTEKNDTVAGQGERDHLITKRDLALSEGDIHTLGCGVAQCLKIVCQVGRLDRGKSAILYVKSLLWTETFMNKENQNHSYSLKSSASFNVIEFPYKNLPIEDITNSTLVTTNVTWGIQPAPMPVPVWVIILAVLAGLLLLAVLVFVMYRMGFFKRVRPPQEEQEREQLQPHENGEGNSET
T1 sequence (P18564 22-788, chain 2 of 2): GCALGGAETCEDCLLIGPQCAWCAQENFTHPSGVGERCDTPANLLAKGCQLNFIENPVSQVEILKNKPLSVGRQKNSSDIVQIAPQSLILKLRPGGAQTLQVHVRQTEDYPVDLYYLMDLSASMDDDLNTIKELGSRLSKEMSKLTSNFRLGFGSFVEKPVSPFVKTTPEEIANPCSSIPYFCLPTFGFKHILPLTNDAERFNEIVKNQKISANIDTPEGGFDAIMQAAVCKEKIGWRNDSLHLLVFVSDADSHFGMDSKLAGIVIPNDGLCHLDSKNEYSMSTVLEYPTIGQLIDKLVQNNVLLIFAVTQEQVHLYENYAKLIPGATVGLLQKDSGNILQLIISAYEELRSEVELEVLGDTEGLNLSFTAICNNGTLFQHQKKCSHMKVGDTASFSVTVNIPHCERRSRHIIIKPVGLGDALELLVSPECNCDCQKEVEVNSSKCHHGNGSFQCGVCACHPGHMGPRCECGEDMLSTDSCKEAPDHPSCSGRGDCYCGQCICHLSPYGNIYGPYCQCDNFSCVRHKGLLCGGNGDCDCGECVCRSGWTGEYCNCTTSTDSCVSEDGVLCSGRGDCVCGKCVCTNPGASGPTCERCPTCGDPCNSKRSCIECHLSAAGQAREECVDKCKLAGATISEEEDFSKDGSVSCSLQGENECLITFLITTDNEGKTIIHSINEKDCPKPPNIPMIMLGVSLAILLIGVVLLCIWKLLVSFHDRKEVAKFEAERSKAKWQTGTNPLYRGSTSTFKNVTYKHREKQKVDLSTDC

B1: STX-100 (antibody, human IgG1, kappa, V domains shown)
VH: EVQLVESGGGLVQPGGSLRLSCAASGFTFSRYVMSWVRQAPGKGLEWVASISSGGRMYYPDTVKGRFTISRDNAKNSLYLQMNSLRAEDTAVYYCARGSIYDGYYVFPYWGQGTLVTVSS
VL: EIVLTQSPATLSLSPGERATLSCSASSSVSSSYLYWYQQKPGQAPRLLIYSTSNLASGIPARFSGSGSGTDFTLTISSLEPEDFAVYYCHQWSTYPPTFGGGTKVEIKR
notes: Humanized human IgG1/human kappa monoclonal antibody; It was tested as drug product in citrate/arginine/methionine/PS80 formulations; also called BG00011; BG11
Potency, % Binding relative to Reference Standard (integrin αvβ6 [1]): 102% | Potency, % Binding relative to Reference Standard (integrin αvβ6 [2]): 98% | Potency, % Binding relative to Reference Standard (integrin αvβ6 [3]): 95% | Potency, % Binding relative to Reference Standard (integrin αvβ6 [4]): 100% | Potency, % Binding relative to Reference Standard (integrin αvβ6 [5]): 106% | DELFIA Blocking - Binding relative to Reference Standard (integrin αvβ6 [6]): 100% | DELFIA Blocking - Binding relative to Reference Standard (integrin αvβ6 [7]): 101% | DELFIA Blocking - Binding relative to Reference Standard (integrin αvβ6 [8]): 96%
